Among the data in the Human Domainome abundance scans (Beltran et al. 2025) are abundance fitness values, retold here.

To fix the notation:
B1: GA-binding protein alpha chain, residues 172 to 250; numbered along this chain, Q06546 (parent)
chain: GYRKEQERLGIPYDPIQWSTDQVLHWVVWVMKEFSMTDIDLTTLNISGRELCSLNQEDFFQRVPRGEILWSHLELLRKY

± gives the uncertainty stated by the source.

In the data set the parent is B1. Description: abundance fitness (aPCA) (normalised: wild type 0, dead -1); higher = more abundant; growth selection in yeast, the domain comes from the species named. The settings on record: Homo sapiens.
On to GYRKEQERLGIPYDPIQWSTDQVLHWVVWDMKEFSMTDIDLTTLNISGRELCSLNQEDFFQRVPRGEILWSHLELLRKY [V30D], for which the abundance fitness was -0.763 ± 0.13.

GYRKEQERLGIPYDPIQWSTDQVLHWVVWLMKEFSMTDIDLTTLNISGRELCSLNQEDFFQRVPRGEILWSHLELLRKY [V30L]: the abundance fitness is -0.12 ± 0.034.

GYRKEQERLGIPYDPIQWSTDQVLHWVVWIMKEFSMTDIDLTTLNISGRELCSLNQEDFFQRVPRGEILWSHLELLRKY [V30I]: the abundance fitness was -0.099 ± 0.086.

Regarding GYRKEQERLGIPYDPIQWSTDQVLHWVVWEMKEFSMTDIDLTTLNISGRELCSLNQEDFFQRVPRGEILWSHLELLRKY [V30E], the abundance fitness is -0.08 ± 0.062.

In the case of GYRKEQERLGIPYDPIQWSTDQVLHWVVWCMKEFSMTDIDLTTLNISGRELCSLNQEDFFQRVPRGEILWSHLELLRKY [V30C], the abundance fitness was found to be 0.012 ± 0.14.

Consider GYRKEQERLGIPYDPIQWSTDQVLHWVVWPMKEFSMTDIDLTTLNISGRELCSLNQEDFFQRVPRGEILWSHLELLRKY [V30P], for which the abundance fitness was -0.822 ± 0.12.

Turning to GYRKEQERLGIPYDPIQWSTDQVLHWVVWHMKEFSMTDIDLTTLNISGRELCSLNQEDFFQRVPRGEILWSHLELLRKY [V30H], the abundance fitness is -0.134 ± 0.068.

In the case of GYRKEQERLGIPYDPIQWSTDQVLHWVVWMMKEFSMTDIDLTTLNISGRELCSLNQEDFFQRVPRGEILWSHLELLRKY [V30M], the abundance fitness was -0.042 ± 0.058.

In the case of GYRKEQERLGIPYDPIQWSTDQVLHWVVWQMKEFSMTDIDLTTLNISGRELCSLNQEDFFQRVPRGEILWSHLELLRKY [V30Q], the abundance fitness is -0.345 ± 0.054.

For GYRKEQERLGIPYDPIQWSTDQVLHWVVWGMKEFSMTDIDLTTLNISGRELCSLNQEDFFQRVPRGEILWSHLELLRKY [V30G], the abundance fitness is -0.051 ± 0.038.

GYRKEQERLGIPYDPIQWSTDQVLHWVVWTMKEFSMTDIDLTTLNISGRELCSLNQEDFFQRVPRGEILWSHLELLRKY [V30T]: the abundance fitness is 0.003 ± 0.071.

Consider GYRKEQERLGIPYDPIQWSTDQVLHWVVWSMKEFSMTDIDLTTLNISGRELCSLNQEDFFQRVPRGEILWSHLELLRKY [V30S], for which the abundance fitness was -0.076 ± 0.041.

Regarding GYRKEQERLGIPYDPIQWSTDQVLHWVVHVMKEFSMTDIDLTTLNISGRELCSLNQEDFFQRVPRGEILWSHLELLRKY [W29H], the abundance fitness was -0.404 ± 0.058.

As for GYRKEQERLGIPYDPIQWSTDQVLHWVVVVMKEFSMTDIDLTTLNISGRELCSLNQEDFFQRVPRGEILWSHLELLRKY [W29V], the abundance fitness is -0.939 ± 0.08.

As to GYRKEQERLGIPYDPIQWSTDQVLHWVVAVMKEFSMTDIDLTTLNISGRELCSLNQEDFFQRVPRGEILWSHLELLRKY [W29A], the abundance fitness is -0.632 ± 0.054.

On to GYRKEQERLGIPYDPIQWSTDQVLHWVVQVMKEFSMTDIDLTTLNISGRELCSLNQEDFFQRVPRGEILWSHLELLRKY [W29Q], for which the abundance fitness is -0.724 ± 0.087.

For the variant GYRKEQERLGIPYDPIQWSTDQVLHWVVGVMKEFSMTDIDLTTLNISGRELCSLNQEDFFQRVPRGEILWSHLELLRKY [W29G], the abundance fitness was -0.776 ± 0.048.

GYRKEQERLGIPYDPIQWSTDQVLHWVVRVMKEFSMTDIDLTTLNISGRELCSLNQEDFFQRVPRGEILWSHLELLRKY [W29R]: the abundance fitness is -0.9 ± 0.072.

On to GYRKEQERLGIPYDPIQWSTDQVLHWVVCVMKEFSMTDIDLTTLNISGRELCSLNQEDFFQRVPRGEILWSHLELLRKY [W29C], for which the abundance fitness is -0.663 ± 0.099.

As to GYRKEQERLGIPYDPIQWSTDQVLHWVVDVMKEFSMTDIDLTTLNISGRELCSLNQEDFFQRVPRGEILWSHLELLRKY [W29D], the abundance fitness is -0.57 ± 0.12.

As to GYRKEQERLGIPYDPIQWSTDQVLHWVVIVMKEFSMTDIDLTTLNISGRELCSLNQEDFFQRVPRGEILWSHLELLRKY [W29I], the abundance fitness is -1.09 ± 0.28.

With GYRKEQERLGIPYDPIQWSTDQVLHWVVYVMKEFSMTDIDLTTLNISGRELCSLNQEDFFQRVPRGEILWSHLELLRKY [W29Y], the abundance fitness is -0.106 ± 0.065.

On to GYRKEQERLGIPYDPIQWSTDQVLHWVVKVMKEFSMTDIDLTTLNISGRELCSLNQEDFFQRVPRGEILWSHLELLRKY [W29K], for which the abundance fitness is -0.816 ± 0.22.

On to GYRKEQERLGIPYDPIQWSTDQVLHWVVEVMKEFSMTDIDLTTLNISGRELCSLNQEDFFQRVPRGEILWSHLELLRKY [W29E], for which the abundance fitness is -0.701 ± 0.087.

Regarding GYRKEQERLGIPYDPIQWSTDQVLHWVVLVMKEFSMTDIDLTTLNISGRELCSLNQEDFFQRVPRGEILWSHLELLRKY [W29L], the abundance fitness was -0.815 ± 0.065.

As to GYRKEQERLGIPYDPIQWSTDQVLHWVVFVMKEFSMTDIDLTTLNISGRELCSLNQEDFFQRVPRGEILWSHLELLRKY [W29F], the abundance fitness was -0.279 ± 0.08.

Turning to GYRKEQERLGIPYDPIQWSTDQVLHWVVSVMKEFSMTDIDLTTLNISGRELCSLNQEDFFQRVPRGEILWSHLELLRKY [W29S], the abundance fitness was -0.439 ± 0.042.

Take GYRKEQERLGIPYDPIQWSTDQVLHWVVTVMKEFSMTDIDLTTLNISGRELCSLNQEDFFQRVPRGEILWSHLELLRKY [W29T]: the abundance fitness is -0.452 ± 0.062.

For the variant GYRKEQERLGIPYDPIQWSTDQVLHWVMWVMKEFSMTDIDLTTLNISGRELCSLNQEDFFQRVPRGEILWSHLELLRKY [V28M], the abundance fitness is 0.016 ± 0.053.

As to GYRKEQERLGIPYDPIQWSTDQVLHWVNWVMKEFSMTDIDLTTLNISGRELCSLNQEDFFQRVPRGEILWSHLELLRKY [V28N], the abundance fitness was -0.1 ± 0.098.

On to GYRKEQERLGIPYDPIQWSTDQVLHWVPWVMKEFSMTDIDLTTLNISGRELCSLNQEDFFQRVPRGEILWSHLELLRKY [V28P], for which the abundance fitness is -0.921 ± 0.086.

For GYRKEQERLGIPYDPIQWSTDQVLHWVRWVMKEFSMTDIDLTTLNISGRELCSLNQEDFFQRVPRGEILWSHLELLRKY [V28R], the abundance fitness came to 0.043 ± 0.027.

With GYRKEQERLGIPYDPIQWSTDQVLHWVWWVMKEFSMTDIDLTTLNISGRELCSLNQEDFFQRVPRGEILWSHLELLRKY [V28W], the abundance fitness is -0.043 ± 0.024.

On to GYRKEQERLGIPYDPIQWSTDQVLHWVSWVMKEFSMTDIDLTTLNISGRELCSLNQEDFFQRVPRGEILWSHLELLRKY [V28S], for which the abundance fitness is -0.035 ± 0.032.

With GYRKEQERLGIPYDPIQWSTDQVLHWVQWVMKEFSMTDIDLTTLNISGRELCSLNQEDFFQRVPRGEILWSHLELLRKY [V28Q], the abundance fitness came out at 0.027 ± 0.046.
